Results taken from patent publication US20240101645A1 (HENRY M JACKSON FOUNDATION FOR THE ADVANCEMENT OF MILITARY …, published 2024).

Key:
[1] = target: T1, HCoV-NL63 spike antigens (bead panel) (HCoV-NL63, UniProt Q6Q1S2 19-1296); assay: multiplex bead assay
T1 sequence: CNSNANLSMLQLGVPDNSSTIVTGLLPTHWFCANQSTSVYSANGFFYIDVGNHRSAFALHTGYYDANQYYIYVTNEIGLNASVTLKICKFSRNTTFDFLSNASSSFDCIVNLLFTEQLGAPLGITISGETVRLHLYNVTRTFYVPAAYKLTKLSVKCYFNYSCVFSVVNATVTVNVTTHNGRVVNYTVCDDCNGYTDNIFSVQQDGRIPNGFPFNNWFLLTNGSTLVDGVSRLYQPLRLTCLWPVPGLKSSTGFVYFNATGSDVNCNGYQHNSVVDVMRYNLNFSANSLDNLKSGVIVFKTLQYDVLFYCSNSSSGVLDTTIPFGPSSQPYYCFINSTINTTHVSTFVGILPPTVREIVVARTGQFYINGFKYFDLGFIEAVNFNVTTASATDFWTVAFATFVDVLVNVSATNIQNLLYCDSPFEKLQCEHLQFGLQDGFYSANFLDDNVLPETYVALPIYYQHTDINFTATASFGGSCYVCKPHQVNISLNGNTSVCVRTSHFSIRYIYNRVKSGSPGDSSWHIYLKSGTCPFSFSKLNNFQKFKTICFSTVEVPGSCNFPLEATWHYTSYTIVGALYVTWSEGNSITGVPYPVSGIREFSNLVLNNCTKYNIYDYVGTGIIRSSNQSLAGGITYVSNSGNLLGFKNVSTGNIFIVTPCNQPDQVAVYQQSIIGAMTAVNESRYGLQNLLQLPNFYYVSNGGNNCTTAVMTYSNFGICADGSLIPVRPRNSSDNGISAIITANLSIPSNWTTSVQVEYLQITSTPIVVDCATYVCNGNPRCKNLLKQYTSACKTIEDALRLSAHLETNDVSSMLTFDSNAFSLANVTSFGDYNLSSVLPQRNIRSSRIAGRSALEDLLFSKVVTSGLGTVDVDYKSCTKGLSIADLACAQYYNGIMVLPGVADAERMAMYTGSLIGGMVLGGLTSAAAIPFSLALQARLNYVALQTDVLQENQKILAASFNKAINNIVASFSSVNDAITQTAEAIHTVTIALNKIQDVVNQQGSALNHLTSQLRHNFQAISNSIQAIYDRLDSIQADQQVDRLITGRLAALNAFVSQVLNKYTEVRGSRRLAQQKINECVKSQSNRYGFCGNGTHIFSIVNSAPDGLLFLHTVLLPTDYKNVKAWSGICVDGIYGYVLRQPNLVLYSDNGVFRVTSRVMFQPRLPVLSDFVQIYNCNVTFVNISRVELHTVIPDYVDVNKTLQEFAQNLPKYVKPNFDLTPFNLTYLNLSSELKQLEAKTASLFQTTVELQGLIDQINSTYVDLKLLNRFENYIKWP

[2] = target: T2, HCoV-OC43 spike antigens (bead panel) (HCoV-OC43, UniProt P36334 14-1297); assay: multiplex bead assay
T2 sequence: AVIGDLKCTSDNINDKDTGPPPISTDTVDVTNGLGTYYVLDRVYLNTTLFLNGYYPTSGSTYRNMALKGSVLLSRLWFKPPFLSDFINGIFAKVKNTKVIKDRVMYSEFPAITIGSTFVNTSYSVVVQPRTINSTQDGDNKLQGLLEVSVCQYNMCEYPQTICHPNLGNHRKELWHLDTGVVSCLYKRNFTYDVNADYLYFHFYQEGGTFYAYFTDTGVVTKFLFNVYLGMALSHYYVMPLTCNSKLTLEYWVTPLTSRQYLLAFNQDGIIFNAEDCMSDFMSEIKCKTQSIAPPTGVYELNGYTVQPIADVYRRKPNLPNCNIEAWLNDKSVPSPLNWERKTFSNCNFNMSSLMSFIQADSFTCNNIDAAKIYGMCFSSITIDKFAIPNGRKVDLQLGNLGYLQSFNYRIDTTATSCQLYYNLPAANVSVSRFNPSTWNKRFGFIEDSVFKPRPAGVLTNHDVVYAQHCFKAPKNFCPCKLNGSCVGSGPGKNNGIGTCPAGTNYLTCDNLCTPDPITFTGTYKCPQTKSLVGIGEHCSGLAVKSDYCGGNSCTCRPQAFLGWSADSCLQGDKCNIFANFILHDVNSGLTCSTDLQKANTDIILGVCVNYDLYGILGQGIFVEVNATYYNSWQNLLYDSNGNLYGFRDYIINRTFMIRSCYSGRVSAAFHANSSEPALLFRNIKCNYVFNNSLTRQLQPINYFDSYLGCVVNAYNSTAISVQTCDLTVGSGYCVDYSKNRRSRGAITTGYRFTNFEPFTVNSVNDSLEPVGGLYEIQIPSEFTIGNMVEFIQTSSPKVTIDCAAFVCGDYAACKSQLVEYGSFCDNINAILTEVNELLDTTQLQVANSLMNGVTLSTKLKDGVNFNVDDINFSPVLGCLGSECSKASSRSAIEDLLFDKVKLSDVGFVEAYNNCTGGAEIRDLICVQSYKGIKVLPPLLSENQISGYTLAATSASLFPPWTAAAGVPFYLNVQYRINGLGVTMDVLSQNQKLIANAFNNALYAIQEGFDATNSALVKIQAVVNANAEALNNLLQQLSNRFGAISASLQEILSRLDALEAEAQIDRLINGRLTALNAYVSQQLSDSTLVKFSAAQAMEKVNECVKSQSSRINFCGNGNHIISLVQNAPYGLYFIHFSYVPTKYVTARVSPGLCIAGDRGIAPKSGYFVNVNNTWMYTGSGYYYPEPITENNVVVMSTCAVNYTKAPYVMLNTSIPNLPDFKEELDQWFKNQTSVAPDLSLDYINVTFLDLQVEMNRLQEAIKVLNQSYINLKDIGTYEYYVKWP

B1: COV_2193 (antibody, V domains shown)
VH: QVQLVQSGAEVKKPGASVKVSCKVSGYTLTDLSMHWVRQTPGKGLEWMGGFDAEDGETIYAQNFQGRVTMTEDTSIDVAYMELSSLRSEDTAVYYCATGSVGPDYWGQGTLVTVSS
VL: SSELTQDPAVSVALGQTVRITCQGDSLRSYYASWFQQKPGQAPVLVIYLKNDRPSGIPDRFSGSSSGNTASLTITGAQAEDEADYYCNSRDSSGNHQVFGGGTKLTVL
notes: human IgG1
- binding result [1]: no binding
- binding result [2]: no binding

B2: COV_3088 (antibody, V domains shown)
VH: EVQLVESGGGLVQPGGSLRLSCAASGFTFSSYDMHWVRQATGKGLEWVSAIGTAGDTYYPGSVKGRFTISRENAKNSLYLQMNSLRAGDTAVYYCARGSGWPPFFDYWGQGTLVTVSS
VL: SYELTQPPSVSVAPGKTARITCGGNNIGSKSVHWYQQKPGQAPVLVIYYDSDRPSGIPERFSGSNSGNTATLTISRVEAGDEADYYCQVWDSSSDHHWVFGGGTKLTVL
notes: human IgG1
- binding result [1]: no binding
- binding result [2]: no binding

B3: COV_2100 (antibody, V domains shown)
VH: EVQLVESGGGLVQPGGSLRLSCAASGFTFSSYDMYWVRQATGKGLEWVSAIGTAGDTYYPGSVKGRFTISRENAKNSLYLRMNSLRAGDTAVYFCARADKNTAMFFDYWGQGTLVTVSS
VL: DIQMTQSPSSLSASVGDRVTITCRASQNINNFLHWYQQKPGNAPKLLIYAASTLQSGVPSRFSGSGSGTDFTLTISSLQPEDFATYYCQQSYSTPGGTFGGGTKVEIK
notes: human IgG1
- binding result [1]: no binding
- binding result [2]: no binding

B4: COV_2037 (antibody, V domains shown)
VH: QVQLVQSGAEVKKPGASVKVSCKVSGYTLTELSMHWVRQAPGKGLEWMGGFDPEDAETIYAQKFQGRVTMTEDTSTDTAYMELSSLRSEDTAVYYCATAGAITGTPTNYSYYYGMDFWGQGTTVTVSS
VL: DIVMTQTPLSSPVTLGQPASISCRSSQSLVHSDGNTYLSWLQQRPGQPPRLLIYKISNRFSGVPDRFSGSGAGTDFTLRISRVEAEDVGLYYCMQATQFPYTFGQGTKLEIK
notes: human IgG1
- binding result [1]: no binding
- binding result [2]: no binding

B5: COV_2028 (antibody, V domains shown)
VH: QVQLQESGPGLVKPSGTLSLTCVVSGGSISSSNWWSWVRQPPGKGLEWIGEIYHSGSTNYNPSLKSRVTISVDKSKNQFSLRLTSVTAADTAVYYCARGWNYDYWGQGTLVTVSS
VL: QSALTQPASVSGSPGQSITIACTGTSSDVGSYNLVSWYQQHPGKAPKLMIYEVSKRPSGLSNRFSGSKSGNTASLTISGLQAEDEADYYCYSYAGSSTWVFGGGTKLTVL
notes: human IgG1
- binding result [1]: no binding
- binding result [2]: no binding

B6: COV_2103 (antibody, V domains shown)
VH: EVQLVESGGGVVQPGRSLRLSCGASGFTFSSYGIHWVRQAPGKGLDWVAVIWHDGSQKYYGDSVKGRFTISRDNSKNTLYLQMNRLRAEDTAVYYCARDSGDDYDSSGYPIGNAFDLWGQGTMVTVSS
VL: DIQMTQSPSTLSASVGDRVTITCRASQFINSWLAWYQQKPGKAPKLLIYKASSLETGVPSRFSGSGSGTEFTLTISSLQPDDFATYYCQQYNTYSFTFGPGTKVDIK
notes: human IgG1
- binding result [1]: no binding
- binding result [2]: no binding

B7: COV_2137 (antibody, V domains shown)
VH: EVQLVESGGGLVKPGGSLRLSCAASGFTFSSYTMNWVRQAPGKGLEWVSSISSGSSFIYYADSLRGRFTISRDNAKNSLYLQMNSLRAEDTAVYYCARAPEPQSVIYAYWYFDLWGRGTLVTVSS
VL: QSALTQPASVSGSPGQSITFSCTGTSSDVGSYNLVSWYQQYPGKAPKLMIYEVNKRPSGVSNRFSGSKSGNTASLTISGLQAEDEADYYCCSYAGSSTFYVFGTGTKVTVLG
notes: human IgG1
- binding result [1]: no binding
- binding result [2]: no binding

B8: COV_2134 (antibody, V domains shown)
VH: EVQLVESGGGVVQPGRSLRLSCAASGFIFSSYGMYWVRQAPGKGLEWVAVIWYDGSNKYYADSVKGRFTISRDNSKNTLYLQMNSLRAEDTAVYYCARDLSSSSGWDDYYYYYGMDVWGQGTTVTVSS
VL: not shown
notes: human IgG1
- binding result [1]: no binding
- binding result [2]: no binding

B9: COV_2054 (antibody, V domains shown)
VH: EVQLVESGGGVLQPGRSLRLSCAASGFTFNNYALHWVRQAPGKGLEWVAVISYDGSSKYYADSVRGRLTISRDNSRNTLYLQMNSLRPEDTAIYYCARDGDGLWLGESFYFDDWGQGTLVTVSS
VL: DIQMTQSPSTLSASVGDRVIITCRASQSISSWLAWYQQKPGKAPKLLIYEASTLQSGVPSRFSGSGSGTEFTLTISSLQPDDSATYYCQQYNSYPVHFSQGTKLEIK
notes: human IgG1
- binding result [1]: no binding
- binding result [2]: no binding

B10: COV_2196 (antibody, V domains shown)
VH: QVQLVQSGAEVKKPGASVKVSCKVSGYTLIELSMHWVRQAPGKGLEWMGGFDPEDAKTIYAQKFQGRVTMTEDTSTDTAYMELSSLTFEDTAVYYCATTPAFMAAAGDFDYWGQGTLVTVSS
VL: QPVLTQPSSVSVSPGQTATITCSGDVLAKKYARWFQQKPGQAPMLVIYKDTERPSGIPERFSGSSSGTTVTLTINGAQVEDEADYYCYSAAAWVFGGGTKLTVL
notes: human IgG1
- binding result [1]: no binding
- binding result [2]: no binding

B11: COV_2057 (antibody, V domains shown)
VH: EVQLVQSGAEVKKPGESLKISCKGSGYSFISYWIAWVRQMPGKGLEWMGIIYPGDSDTTYSPSFQGQVTISADKSISTAYLQWSSLKASDTAIYYCARLLYYSDSSPLDSWGQGTLVTVSS
VL: DIQMTQSPSSLSASVGDRVTITCRASQSISTYLNWYQQKPGKAPNLLIYAASSLQSGVPSRFSGSGSGTDFTLTISSLQPEDFATYYCQQSHSTPRTFGPGTKVDIK
notes: human IgG1
- binding result [1]: no binding
- binding result [2]: no binding

B12: COV_1050 (antibody, V domains shown)
VH: QVQLVESGGGVVQPGRSLRLSCAASRFTFSSYAMHWVRQAPGKGLEWVAVISFDGSNKYYADSVKGRFTIFRDNSKNTLSLQMNSLRTEDTAMYYCASPAGYYESLWGQGTLVTVSS
VL: SYELTQPPSVSVSPGQTARVTCSGDALSKQYGFWYQQKPGQAPTLVIYKDTERPSGIPERFSGSGSGTTVTLTISGVQAEDEADYYCQSTDNSGRWVFGGGTKLTVLG
notes: human IgG1
- binding result [1]: no binding
- binding result [2]: no binding

B13: COV_2035 (antibody, V domains shown)
VH: QVQLVQSGAEVKKPGASVKVSCKVSGYTLPELSIHWVRQAPGKGLEWLGGFDPEDGKIIYAQKFQGRVTMTEDTSTDTAYMELSSLRSEDTAVYYCATSPAVVERGWFDPWGQGTLVTVSS
VL: QSALTQPPSASGSPGQSVTISCTGTSSDVGGYNYVSWYQQHPGKAPKLMIYEVSKRPSGVPDRFSGSKSGNMASLTVSGLQAEDEANYYCSSYAGSKRVFGGGTKLTVL
notes: human IgG1
- binding result [1]: no binding
- binding result [2]: no binding
